According to patent US20080027001A1 (published 2008):
Substitutions are numbered along the chain they refer to. Names and notes keep the numbering of the source. Bridges are numbered along the chain shown (N, C = ends).

Tests used:
[1] = target: T1, mutant NgR1 EM8 (K277A, R279A) (human, UniProt Q9BZR6 27-447); experiment: MAG-AP (10 µg/ml) on transfected COS-7 cells, AP luminescence, corrected for background and transfection efficiency
T1 construct: whole, on cells
T1 sequence (looked up): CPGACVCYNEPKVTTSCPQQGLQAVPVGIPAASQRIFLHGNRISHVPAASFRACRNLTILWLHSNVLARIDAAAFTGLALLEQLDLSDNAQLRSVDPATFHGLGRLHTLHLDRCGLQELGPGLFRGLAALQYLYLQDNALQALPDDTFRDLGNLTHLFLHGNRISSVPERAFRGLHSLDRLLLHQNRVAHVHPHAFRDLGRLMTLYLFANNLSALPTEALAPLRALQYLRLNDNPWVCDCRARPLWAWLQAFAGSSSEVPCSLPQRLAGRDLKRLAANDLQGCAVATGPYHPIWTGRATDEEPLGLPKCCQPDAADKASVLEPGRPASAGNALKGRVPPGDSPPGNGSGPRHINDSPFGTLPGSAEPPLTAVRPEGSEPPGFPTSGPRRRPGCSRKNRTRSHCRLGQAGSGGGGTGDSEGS
Description: (§1) The remaining cells were separately plated and assayed for surface expression of the NgR1 proteins by immunocytochemistry (Example 1.9) and for total NgR1 protein levels by Western blot analysis (Example 1.8). […] The next day, wells were rinsed once with HBAH (Hank's Balanced Salt Solution (HBSS) containing bovine serum albumin (0.5 mg/ml), NaN₃ (0.1%), and 20 mM HEPES pH 7.0) at room temperature followed by incubation with 100 μl of AP fusion protein (MAG-AP or Nogo-66-AP) diluted to a final concentration of 10 μg/ml in HBAH for 90 minutes. Wells were then washed six times with gentle shaking in HBAH at room temperature, five minutes each wash. Cells were then fixed with acetone-formaldehyde (60%-3%, in 20 mM HEPES, pH 7.0) for 15 seconds at room temperature, then washed three times for five minutes each with HBSS. Binding of AP-tagged ligands was measured using the Great EscAPe SEAP Kit (BD Biosciences) following the manufacturer's recommended protocol. Briefly, after aspirating HBSS, 60 μl of dilution buffer was added to each well, the plates were sealed, and then incubated at 65° C. for 90 min. Plates were cooled on ice and then 60 μl of assay buffer was added per well and incubated at room temperature for five minutes. Sixty microliters of diluted CSPD® substrate (Applied Biosystems, Foster City, Calif.) was then added per well, incubated for 10 minutes at room temperature, and then read on an LMAXII luminometer (Molecular Devices). Absolute binding numbers were corrected by subtracting average binding values obtained from mock-transfected controls. Binding was further corrected for sample-to-sample variations in transfection efficiency by normalizing to beta-galactosidase activity. Beta-galactosidase activity was measured using the luminescent beta-gal detection kit II (BD Biosciences) following the manufacturer's recommended protocol. Three independent binding experiments were conducted with six to eleven replicates per experiment. Background-subtracted, beta-galactosidase-corrected binding values were expressed relative to the wild type receptor.

[2] = target: T2, mutant NgR1 EM7 (K277D/R279D) (human, UniProt Q9BZR6 27-447); experiment: as above
T2 construct: whole, on cells
T2 sequence (looked up): T1 sequence (looked up) with A251D, A253D
Description: as §1

mutant NgR1 EM11 (R279A) [3] = target: T3, mutant NgR1 EM11 (R279A) (human, UniProt Q9BZR6 27-447); experiment: as above
T3 construct: whole, on cells
T3 sequence (looked up): T1 sequence (looked up) with A251K
Description: as §1

[4] = target: Recombinant MAG-Fc chimera (R&D Systems); experiment: cell-based or functional assay
mutant NgR1 EM10 (K277A) = target: T4, mutant NgR1 EM10 (K277A) (human, UniProt Q9BZR6 27-447); experiment: Nogo-66-AP (10 µg/ml) on transfected COS-7 cells, AP luminescence
T4 construct: whole, on cells
T4 sequence (looked up): T1 sequence (looked up) with A253R
Description: as §1

[5] = target: T1, mutant NgR1 EM8 (K277A, R279A); experiment: as above
Description: as §1

[6] = target: T2, mutant NgR1 EM7 (K277D/R279D); experiment: as above
Description: as §1

mutant NgR1 EM11 (R279A) [7] = target: T3, mutant NgR1 EM11 (R279A); experiment: as above
Description: as §1

B1: MAG-AP (N-terminal human myelin associated glycoprotein amino acids 1-516, C-terminal alkaline phosphatase domain amino acids 23-511, six C-terminal histidine … (ligand)
chain: GHWGAWMPSSISAFEGTCVSIPCRFDFPDELRPAVVHGVWYFNSPYPKNYPPVVFKSRTQVVHESFQGRSRLLGDLGLRNCTLLLSNVSPELGGKYYFRGDLGGYNQYTFSEHSVLDIVNTPNIVVPPEVVAGTEVEVSCMVPDNCPELRPELSWLGHEGLGEPAVLGRLREDEGTWVQVSLLHFVPTREANGHRLGCQASFPNTTLQFEGYASMDVKYPPVIVEMNSSVEAIEGSHVSLLCGADSNPPPLLTWMRDGTVLREAVAESLLLELEEVTPAEDGVYACLAENAYGQDNRTVGLSVMYAPWKPTVNGTMVAVEGETVSILCSTQSNPDPILTIFKEKQILSTVIYESELQLELPAVSPEDDGEYWCVAENQYGQRATAFNLSVEFAPVLLLESHCAAARDTVQCLCVVKSNPEPSVAFELPSRNVTVNESEREFVYSERSGLVLTSILTLRGQAQAPPRVICTARNLYGAKSLELPFQGAHRLMWAKIGPIIPVEEENPDFWNREAAEALGAAKKLQPAQTAAKNLIIFLGDGMGVSTVTAARILKGQKKDKLGPEIPLAMDRFPYVALSKTYNVDKHVPDSGATATAYLCGVKGNFQTIGLSAAARFNQCNTTRGNEVISVMNRAKKAGKSVGVVTTTRVQHASPAGTYAHTVNRNWYSDADVPASARQEGCQDIATQLISNMDIDVILGGGRKYMFRMGTPDPEYPDDYSQGGTRLDGKNLVQEWLAKRQGARYVWNRTELMQASLDPSVTHLMGLFEPGDMKYEIHRDSTLDPSLMEMTEAALRLLSRNPRGFFLFVEGGRIDHGHHESRAYRALTETIMFDDAIERAGQLTSEEDTLSLVTADHSHVFSFGGYPLRGSSIFGLAPGKARDRKAYTVLLYGNGPGYVLKDGARPDVTESESGSPEYRQQSAVPLDEETHAGEDVAVFARGPQAHLVHGVQEQTFIAHVMAFAACLEPYTACDLAPPAGTTDAAHPGHHHHHH
notes: range 1-516;range 23-511; also called alkaline phosphatase-labeled MAG; MAG-AP fusion protein
- percent reduction in binding relative to wild type NgR1 [1]: 58%
- percent reduction in binding relative to wild type NgR1 [2]: 57%
- percent reduction in binding relative to wild type NgR1 (mutant NgR1 EM11 (R279A) [3]): 36%

B2: NRL2bA2 (N-Ac-CQKARGC-NH2) (peptide)
peptide: Ac-CQKARGC-NH2
modifications: disulfide 1-7 (inferred)
- neurite outgrowth, MAG-Fc at 20 µg/ml: reduction of peptide efficacy against NRL2b [4]: ~2 fold

B3: Nogo-66-AP(C47V) (ligand)
chain: IIPVEEENPDFWNREAAEALGAAKKLQPAQTAAKNLIIFLGDGMGVSTVTAARILKGQKKDKLGPEIPLAMDRFPYVALSKTYNVDKHVPDSGATATAYLCGVKGNFQTIGLSAAARFNQCNTTRGNEVISVMNRAKKAGKSVGVVTTTRVQHASPAGTYAHTVNRNWYSDADVPASARQEGCQDIATQLISNMDIDVILGGGRKYMFRMGTPDPEYPDDYSQGGTRLDGKNLVQEWLAKRQGARYVWNRTELMQASLDPSVTHLMGLFEPGDMKYEIHRDSTLDPSLMEMTEAALRLLSRNPRGFFLFVEGGRIDHGHHESRAYRALTETIMFDDAIERAGQLTSEEDTLSLVTADHSHVFSFGGYPLRGSSIFGLAPGKARDRKAYTVLLYGNGPGYVLKDGARPDVTESESGSPEYRQQSAVPLDEETHAGEDVAVFARGPQAHLVHGVQEQTFIAHVMAFAACLEPYTACDLAPPAGTTDAAHPGRIYKGVIQAIQKSDEGHPFRAYLESEVAISEELVQKYSNSALGHVNVTIKELRRLFLVDDLVDSLKHHHHHH
notes: Any secretion signal in front of AP is not described; also called alkaline phosphatase-labeled Nogo-66
- binding result (mutant NgR1 EM10 (K277A)): binds
- binding result [5]: binds
- binding result [6]: binds
- binding result (mutant NgR1 EM11 (R279A) [7]): binds
